Experimental data: the RNAGym collection of RNA variant scans (doi:10.7554/elife.80360)

B1: Hammerhead Ribozyme (parent)
chain: ACCGGAUGUGCUUUCCGGUCUGAUGAGUCCGUGAGGACGAAACAG

Variants of: B1
Test: self-cleavage, relative activity (ratio to wild type); higher = more cleavage; co-transcriptional

Variant | self-cleavage
U13A G31C | 1.39
U13A G31U | 1.39
U13A G33A | 1.29
U13A G33C | 1.25
U13A G33U | 1.46
U13A G35A | 0.89
U13A G35C | 0.799
U13A G35U | 0.727
U13A G36A | 0.732
U13A G36C | 1.03
U13A G36U | 0.713
U13A G39A | 0.317
U13A G39C | 0.341
U13A G39U | 0.339
U13A G45A | 0.883
U13A G45C | 0.808
U13A G45U | 1.02
U13A U14A | 1.15
U13A U14C | 0.548
U13A U14G | 1.16
U13A U19A | 0.36
U13A U19C | 0.898
U13A U19G | 0.425
U13A U21A | 0.707

Variant | self-cleavage
U13A U21C | 0.908
U13A U21G | 0.602
U13A U24A | 1.09
U13A U24C | 1.07
U13A U24G | 1.99
U13A U28A | 1.1
U13A U28C | 1.58
U13A U28G | 1.4
U13A U32A | 1.31
U13A U32C | 1.24
U13A U32G | 1.3
U13C | 1.12
U13C A23C | 0.373
U13C A23G | 0.419
U13C A23U | 0.237
U13C A26C | 0.782
U13C A26G | 0.313
U13C A26U | 0.622
U13C A34C | 1.02
U13C A34G | 0.776
U13C A34U | 1.12
U13C A37C | 1.07
U13C A37G | 1.26
U13C A37U | 0.482

Variant | self-cleavage
U13C A40C | 0.725
U13C A40G | 0.465
U13C A40U | 0.277
U13C A41C | 0.247
U13C A41G | 0.394
U13C A41U | 0.362
U13C A42C | 0.313
U13C A42G | 0.232
U13C A42U | 0.327
U13C A44C | 0.491
U13C A44G | 1.49
U13C A44U | 0.923
U13C C15A | 0.834
U13C C15G | 0.728
U13C C15U | 1.03
U13C C16A | 1.05
U13C C16G | 0.666
U13C C16U | 0.976
U13C C20A | 0.573
U13C C20G | 0.293
U13C C20U | 0.405
U13C C29A | 0.789
U13C C29G | 0.723
U13C C29U | 0.819

Variant | self-cleavage
U13C C30A | 1.54
U13C C30G | 0.956
U13C C30U | 1.24
U13C C38A | 0.601
U13C C38G | 0.458
U13C C38U | 1.11
U13C C43A | 0.35
U13C C43G | 0.278
U13C C43U | 0.499
U13C G17A | 0.809
U13C G17C | 0.573
U13C G17U | 0.884
U13C G18A | 0.955
U13C G18C | 0.842
U13C G18U | 0.933
U13C G22A | 0.243
U13C G22C | 0.247
U13C G22U | 0.346
U13C G25A | 0.395
U13C G25C | 0.264
U13C G25U | 0.367
U13C G27A | 1.09
U13C G27C | 0.985
U13C G27U | 0.673

Variant | self-cleavage
U13C G31A | 1.04
U13C G31C | 1.13
U13C G31U | 1.22
U13C G33A | 1.37
U13C G33C | 0.889
U13C G33U | 1.14
U13C G35A | 0.552
U13C G35C | 0.774
U13C G35U | 0.744
U13C G36A | 0.701
U13C G36C | 0.336
U13C G36U | 0.598
U13C G39A | 0.293
U13C G39C | 0.471
U13C G39U | 0.419
U13C G45A | 0.878
U13C G45C | 0.743
U13C G45U | 0.965
U13C U14A | 0.621
U13C U14C | 0.862
U13C U14G | 0.364
U13C U19A | 0.351
U13C U19C | 0.877
U13C U19G | 0.311

Variant | self-cleavage
U13C U21A | 0.754
U13C U21C | 1.23
U13C U21G | 0.864
U13C U24A | 1.64
U13C U24C | 1.31
U13C U24G | 0.837
U13C U28A | 0.739
U13C U28C | 1.29
U13C U28G | 0.935
U13C U32A | 0.668
U13C U32C | 1.11
U13C U32G | 0.808
U13G | 0.924
U13G A23C | 0.356
U13G A23G | 0.368
U13G A23U | 0.405
U13G A26C | 0.383
U13G A26G | 0.301
U13G A26U | 0.678
U13G A34C | 0.79
U13G A34G | 0.886
U13G A34U | 0.976
U13G A37C | 0.96
U13G A37G | 0.868

Variant | self-cleavage
U13G A37U | 0.625
U13G A40C | 0.454
U13G A40G | 0.281
U13G A40U | 0.303
U13G A41C | 0.348
U13G A41G | 0.423
U13G A41U | 0.272
U13G A42C | 0.276
U13G A42G | 0.316
U13G A42U | 0.333
U13G A44C | 0.567
U13G A44G | 1.7
U13G A44U | 0.644
U13G C15A | 0.701
U13G C15G | 0.715
U13G C15U | 0.763
U13G C16A | 0.765
U13G C16G | 0.899
U13G C16U | 0.836
U13G C20A | 0.374
U13G C20G | 0.244
U13G C20U | 0.435
U13G C29A | 0.595
